# Test system: Bacillus subtilis
# Experiment: cleaved RNA product abundance (RNA/gDNA barcode ratio) relative to median wild-type variant (ratio to wild type); higher = more accumulation of the downstream cleavage product
# Procedure, shortened: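 Truncated aprE or tetM reporter mRNAs with barcoded RNase Y cleavage-site windows, mutagenized from oligos at a 9% error rate, sat in the B. subtilis chromosome. Cells grew in LB at 37°C from OD600 0.0003 to 0.3. Gel-selected cleaved RNA was reverse transcribed and its barcodes sequenced with those from genomic DNA, collapsing by UMI. Cleaved product abundance equals the RNA:gDNA barcode ratio per construct over the median construct with the unmutated site.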
# [1] = experiment (reporter, strain, medium): exp 8a: truncated aprE reporter, strain BJT201 with 2% xylose (RNase J1 expressed), cleavage site: glnRA (positions -5 to +31 mutated)
# [2] = experiment (reporter, strain, medium): exp 4a: truncated aprE reporter, strain BJT201 with 2% xylose (RNase J1 expressed), cleavage site: cggR-gapA (positions -7 to +36 mutated)
# [3] = experiment (reporter, strain, medium): exp 2b: truncated aprE reporter, strain BJT200, cleavage site: cggR-gapA (positions -7 to +36 mutated)
Sequence,cleaved RNA product abundance [1],cleaved RNA product abundance [2],cleaved RNA product abundance [3],"cleaved RNA product abundance (experiment (reporter, strain, medium): exp 6: tetM reporter, strain 168, cleavage site: cggR-gapA (positions -7 to +36 mutated))"
CGACATGTCCCGCTTCTTTCATTAATCCGTTAGCAGCTGTTTTTCTATATACATTTACCTTTTAAGAGGAGGAAT,0.778,,,
ACAGACGAAGGAGCCGCAAAGAAGTTATTAAGGGATAAATAATCCCTCGATATAAATATCTCTCACTTATTTAAA,,0.433,,
ACAGACGAAGGAGCCGCAAAGAAGTTATTAAGGGATGAATAATCCCTCAAAATAAATTTCTCTCACTTATTTAAA,,0.285,,
CGACATGTCCCGCTTCTTTCATTAATCCGTTACCAACTGTTTTGCTATACACATTTACCTTTTAAGAGGAGGAAT,0.212,,,
ACAGACGAAGGAGCCGCAAAGAAGTTATTAAGGGATCAATAATCCCTCAATATAAATATCTCTCACTTATTTAAA,,0.878,0.832,0.996
ACAGACGAAGGAGCCGCAAAGAAGTTATTAAGGTATGAATAATACCTCAATATAAATATCTCTCACTTATTTAAA,,1.16,1,
CGACATGTCCCGCTTCTTTCATTAATCCGTTACCAACTGTTTTCCTATATACATTTACCTTTTAAGAGGAGGAAT,0.203,,,
CGACATGTCCCGCTTCTTTCATTAATCCGTTACCAACTGTTTTGCTATATACATTTATCTTTTAAGAGGAGGAAT,0.306,,,
CGACATGTCCCGCTTCTTTCATTAAACCGTTAGCAACTGTTTTTCTATATACATTTACCTTTTAAGAGGAGGAAT,0.464,,,
ACAGACGAAGGAGCCGCAAAGAAGTTATTAAGGGATGAATTATCCCTGAATATAAATATCTCTCACTTATTTAAA,,,0.396,
ACAGACGAAGGAGCCGCAAAGAACTTATTAAGGCATGAATAATCCCTCAATATAAATATCTCTCACTTATTTAAA,,0.099,0.114,
ACAGACGAAGGAGCCGCAAAGAAGTCATTAAGGGATGAATAAACCCTCAATATAAATATCTCTCACTTATTTAAA,,0.176,,
CGACATGTCCCGCTTCTTTCATTAATCCGTTAGCAACTGTTTTTCTGTATACATTTACCTTTTAAGAGGAGGAAT,0.357,,,
ACAGACGAAGGAGCCGCAATGAAGTTATTAAGGGATGAATAATCACTCAATATAAATATCTCTCACTTATTTAAA,,0.129,0.126,
ACAGACGAAGGAGCCGCAAAGAAGTTATTAAGGGATGAATAATCCCTCTAAATAAATATCTCTCACTTATTTAAA,,0.429,0.36,
CGACATGTCCCGCTTCTTTCATTAATGCGTTAGCAACTGTTTTGCTATATACATTCACCTTTTAAGAGGAGGAAT,0.329,,,
ACAGACGAAGGAGCCGCAAAGAAGTTATTAAGAGATGAACAATCCCTCAATATAAATATCTCTCACTTATTTAAA,,0.205,0.0784,
ACAGACGAAGGAGCCGCAAAGAAGTTATTAAGGGATGAATAATCCCCCACTATAAATATCTCTCACTTATTTAAA,,0.3,,
ACAGACGAAGGAGCCGCAAAGAAGTTATTAAGGGATGAATAATTCCTCATTATAAATATCTCTCACTTATTTAAA,,0.306,0.177,
ACAGACGAAGGAGCCGCAAAGACGCTATTAAGGGATGAATAATCCCTCAATATAAATATCTCTCACTTATTTAAA,,,0.548,
ACAGACGAAGGAGCCGCAAAGAAGTTATTAAAGGACGAATAATCCCTCAATATAAATATCTCTCACTTATTTAAA,,0.103,,
ACAGACGAAGGAGCCGCAAAGAAGTTATTAAGGGATGATTAATTCCTCAATATAAATATCTCTCACTTATTTAAA,,,0.271,
ACAGACGAAGGAGCCGCAAAGAACTTATTAAGGGATGAATAATCCATCAATATAAATATCTCTCACTTATTTAAA,,0.209,0.15,
ACAGACGAAGGAGCCGCAAAGAAGTTATTAAGGTATGAATAATCCCTCAAAATAAATATCTCTCACTTATTTAAA,,0.115,0.108,
ACAGACGAAGGAGCCGCAAAGAAGTTCTTCAGGGATGAATAATCCCTCAATATAAATATCTCTCACTTATTTAAA,,0.262,,
